The values that follow come from publication PMC3718739 (PLoS ONE, 2013).

The assay deals with ARPC4-His6x (human, UniProt P59998 1-168). The experiment in a line: far-Western, overlay or dot blot. Conditions: both partners purified.

B1: GST-Rv1626 (natural protein)
chain: MTGPTTDADAAVPRRVLIAEDEALIRMDLAEMLREEGYEIVGEAGDGQEAVELAELHKPDLVIMDVKMPRRDGIDAASEIASKRIAPIVVLTAFSQRDLVERARDAGAMAYLVKPFSISDLIPAIELAVSRFREITALEGEVATLSERLETRKLVERAKGLLQTKHGMTEPDAFKWIQRAAMDRRTTMKRVAEVVLETLGTPKDT
notes: also called Rv1626-pGEX4T3nn; not shown: GST, N-terminal, kept
For the molecule B1, the binding result was “binds”.
